{
  "source": "patent US20170189519A1",
  "binders": {"B1": {"name": "CR6261 (antibody, V domains shown)", "VH": "EVQLVESGAEVKKPGSSVKVSCKASGGPFRSYAISWVRQAPGQGPEWMGGIIPIFGTTKYAPKFQGRVTITADDFAGTVYMELSSLRSEDTAMYYCAKHMGYQVRETMDVWGKGTTVTVSS", "VL": "QSVLTQPPSVSAAPGQKVTISCSGSSSNIGNDYVSWYQQLPGTAPKLLIYDNNKRPSGIPDRFSGSKSGTSATLGITGLQTGDEANYYCATWDRRPTAYVVFGGGTKLTVLG"}},
  "assay_in_all_cases": "ELISA, coated CR6261, P. pastoris medium",
  "details_in_all_cases": "remark: other sources report otherwise",
  "key": {"[1]": {"biological_target": "188G10 (influenza A H1N1 A/Brisbane/59/2007)"}, "[2]": {"biological_target": "252B8 (influenza A H1N1 A/Brisbane/59/2007)"}, "[3]": {"biological_target": "25304 (influenza A H1N1 A/Brisbane/59/2007)"}, "[4]": {"biological_target": "194C8 (influenza A H1N1 A/Brisbane/59/2007)"}, "[5]": {"biological_target": "112G6 (influenza A H1N1 A/Brisbane/59/2007)"}, "[6]": {"biological_target": "220C9 (influenza A H1N1 A/Brisbane/59/2007)"}, "[7]": {"biological_target": "249B11 (influenza A H1N1 A/Brisbane/59/2007)"}, "[8]": {"biological_target": "134D3 (influenza A H1N1 A/Brisbane/59/2007)"}, "[9]": {"biological_target": "194E4 (influenza A H1N1 A/Brisbane/59/2007)"}, "[10]": {"biological_target": "162B3 (influenza A H1N1 A/Brisbane/59/2007)"}, "[11]": {"biological_target": "123G2 (influenza A H1N1 A/Brisbane/59/2007)"}, "[12]": {"biological_target": "145C9 (influenza A H1N1 A/Brisbane/59/2007)"}, "[13]": {"biological_target": "216E5 (influenza A H1N1 A/Brisbane/59/2007)"}, "[14]": {"biological_target": "251C8 (influenza A H1N1 A/Brisbane/59/2007)"}, "[15]": {"biological_target": "185G7 (influenza A H1N1 A/Brisbane/59/2007)"}, "[16]": {"biological_target": "18987 (influenza A H1N1 A/Brisbane/59/2007)"}, "[17]": {"biological_target": "171F6 (influenza A H1N1 A/Brisbane/59/2007)"}, "[18]": {"biological_target": "182D3 (influenza A H1N1 A/Brisbane/59/2007)"}, "[19]": {"biological_target": "230G9 (influenza A H1N1 A/Brisbane/59/2007)"}, "[20]": {"biological_target": "275D4 (influenza A H1N1 A/Brisbane/59/2007)"}, "[21]": {"biological_target": "264G4 (influenza A H1N1 A/Brisbane/59/2007)"}, "[22]": {"biological_target": "104C4 (influenza A H1N1 A/Brisbane/59/2007)"}, "[23]": {"biological_target": "188A8 (influenza A H1N1 A/Brisbane/59/2007)"}, "[24]": {"biological_target": "233F11 (influenza A H1N1 A/Brisbane/59/2007)"}, "[25]": {"biological_target": "138F11 (influenza A H1N1 A/Brisbane/59/2007)"}, "[26]": {"biological_target": "213B2 (influenza A H1N1 A/Brisbane/59/2007)"}, "[27]": {"biological_target": "204C5 (influenza A H1N1 A/Brisbane/59/2007)"}, "[28]": {"biological_target": "24782 (influenza A H1N1 A/Brisbane/59/2007)"}, "[29]": {"biological_target": "214C4 (influenza A H1N1 A/Brisbane/59/2007)"}, "[30]": {"biological_target": "266A11 (influenza A H1N1 A/Brisbane/59/2007)"}, "[31]": {"biological_target": "134A3 (influenza A H1N1 A/Brisbane/59/2007)"}, "[32]": {"biological_target": "129C2 (influenza A H1N1 A/Brisbane/59/2007)"}, "[33]": {"biological_target": "145F2 (influenza A H1N1 A/Brisbane/59/2007)"}, "[34]": {"biological_target": "188F4 (influenza A H1N1 A/Brisbane/59/2007)"}, "[35]": {"biological_target": "20688 (influenza A H1N1 A/Brisbane/59/2007)"}},
  "data": [
    {"binder": "B1", "values": [
      {"measurement": "CR6261 binding signal", "setting": "[1]", "value": 143000},
      {"measurement": "CR6261 binding signal", "setting": "[2]", "value": 285000},
      {"measurement": "CR6261 binding signal", "setting": "[3]", "value": 396000},
      {"measurement": "CR6261 binding signal", "setting": "[4]", "value": 242000},
      {"measurement": "CR6261 binding signal", "setting": "[5]", "value": 544000},
      {"measurement": "CR6261 binding signal", "setting": "[6]", "value": "1.09e+06"},
      {"measurement": "CR6261 binding signal", "setting": "[7]", "value": 145000},
      {"measurement": "CR6261 binding signal", "setting": "[8]", "value": 304000},
      {"measurement": "CR6261 binding signal", "setting": "[9]", "value": 409000},
      {"measurement": "CR6261 binding signal", "setting": "[10]", "value": 280000},
      {"measurement": "CR6261 binding signal", "setting": "[11]", "value": 499000},
      {"measurement": "CR6261 binding signal", "setting": "[12]", "value": 182000},
      {"measurement": "CR6261 binding signal", "setting": "[13]", "value": 335000},
      {"measurement": "CR6261 binding signal", "setting": "[14]", "value": 270000},
      {"measurement": "CR6261 binding signal", "setting": "[15]", "value": 506000},
      {"measurement": "CR6261 binding signal", "setting": "[16]", "value": 336000},
      {"measurement": "CR6261 binding signal", "setting": "[17]", "value": 140000},
      {"measurement": "CR6261 binding signal", "setting": "[18]", "value": 143000},
      {"measurement": "CR6261 binding signal", "setting": "[19]", "value": 855000},
      {"measurement": "CR6261 binding signal", "setting": "[20]", "value": 327000},
      {"measurement": "CR6261 binding signal", "setting": "[21]", "value": 181000},
      {"measurement": "CR6261 binding signal", "setting": "[22]", "value": 521000},
      {"measurement": "CR6261 binding signal", "setting": "[23]", "value": 279000},
      {"measurement": "CR6261 binding signal", "setting": "[24]", "value": 583000},
      {"measurement": "CR6261 binding signal", "setting": "[25]", "value": 148000},
      {"measurement": "CR6261 binding signal", "setting": "[26]", "value": 132000},
      {"measurement": "CR6261 binding signal", "setting": "[27]", "value": 833000},
      {"measurement": "CR6261 binding signal", "setting": "[28]", "value": 415000},
      {"measurement": "CR6261 binding signal", "setting": "[29]", "value": 302000},
      {"measurement": "CR6261 binding signal", "setting": "[30]", "value": 90600},
      {"measurement": "CR6261 binding signal", "setting": "[31]", "value": 532000},
      {"measurement": "CR6261 binding signal", "setting": "[32]", "value": 199000},
      {"measurement": "CR6261 binding signal", "setting": "[33]", "value": 499000},
      {"measurement": "CR6261 binding signal", "setting": "[34]", "value": 287000},
      {"measurement": "CR6261 binding signal", "setting": "[35]", "value": 286000}
    ]}
  ]
}
